Measured values as given in patent US20240115706A1 (LG CHEM, published 2024).

What was measured:
[1] = molecular target: T1, human GUCY2C-rCD4 fusion protein (Homo sapiens (human); Rattus norvegicus, biotinylated (site not given)); test: ranking ELISA (DELFIA), 50 nM scFv on anti-FLAG, biotinylated antigen, streptavidin-Eu; affinity ranking ELISA, 50 nM: binds
T1 construct: GUCY2C conjugated/fused with CD4; also called Hu-GUCY2C-rCD4; human GUCY2C recombinant antigen
Procedure: (§1) More specifically, after coating an anti-FLAG antibody in a MaxiSorb plate and binding by adding scFvs obtained previously, the remaining scFvs were removed by a washing process. Here, a biotinylated human-GUCY2C-rCD4 protein was incubated and combined, and then the affinity to the antigen was measured by reading signals by DELFIA enhancement with color development through streptavidin-Europlum.

[2] = molecular target: T2, monkey GUCY2C-rCD4 fusion protein (Macaca fascicularis (crab-eating …, limits assumed)); test: ELISA (DELFIA), antigen on streptavidin plate, scFv culture solution, Eu-anti-tag Ab
T2 construct: Prepared by the same method as the human antigen; also called Cy-GUCY2C-rCD4; monkey GUCY2C recombinant antigen
T2 chain: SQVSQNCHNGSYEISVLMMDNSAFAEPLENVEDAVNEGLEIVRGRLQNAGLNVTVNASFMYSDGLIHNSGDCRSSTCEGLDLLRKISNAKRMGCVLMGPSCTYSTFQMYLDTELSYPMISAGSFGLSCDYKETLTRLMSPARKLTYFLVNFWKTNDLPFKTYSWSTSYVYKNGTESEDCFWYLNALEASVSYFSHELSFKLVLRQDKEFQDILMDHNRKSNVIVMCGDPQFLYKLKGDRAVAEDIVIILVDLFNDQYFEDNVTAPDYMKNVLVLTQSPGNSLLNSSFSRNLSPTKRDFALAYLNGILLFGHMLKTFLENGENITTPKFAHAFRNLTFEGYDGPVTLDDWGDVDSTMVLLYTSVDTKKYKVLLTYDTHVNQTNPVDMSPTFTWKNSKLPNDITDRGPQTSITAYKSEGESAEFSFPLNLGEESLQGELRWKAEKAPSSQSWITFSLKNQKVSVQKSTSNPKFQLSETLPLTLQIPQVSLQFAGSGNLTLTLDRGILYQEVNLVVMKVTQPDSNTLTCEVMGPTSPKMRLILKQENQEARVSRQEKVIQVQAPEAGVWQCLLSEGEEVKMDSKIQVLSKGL
Procedure: (§2) More specifically, GUCY2C-rCD4 fusion protein, in which the prepared human GUCY2C (SEQ ID NO: 112), monkey GUCY2C (SEQ ID NO: 114), and mouse GUCY2C (SEQ ID NO: 113) were fused, respectively, was bound to a place coated with streptavidin in a Nunc Maxisorp™96 well plate. After removing all the synthetic proteins not combined with washing buffer, the anti-GUCY2C scFV obtained in the culture solution was incubated in each well. After that, the affinity was measured by reading signals DELFIA enhanced using Eu-anti-tag Ab.

[3] = molecular target: T1, human GUCY2C-rCD4 fusion protein; test: ELISA (DELFIA), antigen on streptavidin plate, scFv culture solution, Eu-anti-tag Ab; binding ELISA, Hu-GUCY2C-rCD4 antigen: binds
Procedure: as §2

[4] = molecular target: T1, human GUCY2C-rCD4 fusion protein; test: ranking ELISA (DELFIA), 5 nM scFv on anti-FLAG, biotinylated antigen, streptavidin-Eu; affinity ranking ELISA, 5 nM: binds
Procedure: as §1

[5] = molecular target: T1, human GUCY2C-rCD4 fusion protein; test: SPR (Sierra SPR-32), scFv on protein G, antigen 800-12.5 nM, 25 C
Procedure: Furthermore, the affinity to the GUCY2C antigen of the 18 kinds of scFvs produced in Example 1 was measured by SPR (Surface plasmon resonance) analysis.
SPR assay was performed with association time 2 min and dissociation time 10 min under the condition of 25 degrees of Celsius using MASS2 (Sierra SPR-32; Bruker). The data were analyzed with Software R3.

[6] = molecular target: T1, human GUCY2C-rCD4 fusion protein; test: ELISA (DELFIA), antigen on streptavidin plate, scFv culture solution, Eu-anti-tag Ab
Procedure: as §2

[7] = molecular target: T3, GUCY2C on the cell surface (T84 colon carcinoma cells; HT29-GUCY2C cells) (human, UniProt P25092 24-1073); test: flow cytometry on T84 cells, median MFI on live singlet cells (IgG-Fc-PE signal), scFv(-Fc) at 10 ug/mL
T3 construct: whole, on cells; also called GUCY2C expressing T84 cells; HT29 GCC cells
Procedure: (§3) Using cells naturally expressing GUCY2C, whether 18 kinds of scFvs produced in Example 1 could actually detect GUCY2C expression on the cell surface was confirmed. For this, a GUCY2C positive cancer cell, T84 colon carcinoma cell (ATCC® CCL248™) was used.
(§4) After separating the two cell lines using trypsin-EDTA, they were placed in FACS buffer (1×PBS+2% BSA). 10 ug/mL of each of the 18 kinds of scFvs and positive control group, 5F9 scFv was cultured with T84 and T-47D cells on ice for 1 hour. The scFv combined to cells was detected using 5 ug/mL IgG-Fc-PE Ab (BioLegend; 409304). The cells were cultured with ToPro®3 (live/dead stain) and then red with a flow cytometer.

[8] = molecular target: T1, human GUCY2C-rCD4 fusion protein; test: ranking ELISA (DELFIA), 50 nM scFv on anti-FLAG, biotinylated antigen, streptavidin-Eu
Procedure: as §1

[9] = molecular target: T1, human GUCY2C-rCD4 fusion protein; test: ranking ELISA (DELFIA), 5 nM scFv on anti-FLAG, biotinylated antigen, streptavidin-Eu
Procedure: as §1

[10] = molecular target: T3, GUCY2C on the cell surface (T84 colon …); test: flow cytometry, scFv(-Fc) at 10 ug/mL on GUCY2C-positive T84 cells, detected with IgG-Fc-PE Ab (FL2-H)
Procedure: as §3, §4

| Binder | Affinity Ranking ELISA (50 nM) signal [1] | Binding ELISA signal [2] | Binding ELISA signal [3] | Affinity Ranking ELISA (5 nM) signal [4] | Kd [5] | Binding ELISA signal [6] | binding result [7] | Affinity Ranking ELISA (50 nM) signal [8] | Affinity Ranking ELISA (5 nM) signal [9] | binding result [10] |
| --- | --- | --- | --- | --- | --- | --- | --- | --- | --- | --- |
| scFv A01 (scFv, also called 2426_01_A02) scFv: QVQLVQSGAEVKKPGASVKVSCKASGYTFTSYYMHWVRQAPGQGLEWMGIINPSGGSTSYAQEFQGRVTMTRDTSTSTVYMELSSLRSEDTAVYYCARDGQWLQFDYWGQGTLVTVSSGGGGSGGGGSGGGASDIVMTQSPLSLPVTLGQPASISCRSSQSLLKKSDGNTYLSWYHQRPGQSPRRLIYKVSNRDSGVPDRFSGSGSDTDFTLKISRVETEDVGIYYCMQGSHWPPTFGQGTKVEIK | 104000 | 28100 | 30200 | 13800 |  |  |  |  |  |  |
| scFv B11 (scFv, also called 2437_02_G07; G07) scFv: QVQLVESGAEVKKPGSSVKVSCKASGGTFSSYAISWVRQAPGQGLEWMGGIIPIFGTANYAQKFQGRVTITADESTSTAYMELSGLRSEDTAVYYCARGIQPLRYYGMDVWGQGTLVTVSSGGGGSGGGGSGGGASQSALTQPPSASGTPGQRVTISCSGSSSNIGSNYVYWYQQLPGTAPKLLIYRNNQRPSGVPDRFSGSKSGTSASLAISGLRSEDEADYYCAAWDDSLSGRGVFGGGTQLTVL |  | 23600 |  |  | 1330 nM | 37500 | binds | 89600 | 14800 |  |
| scFv B12 (scFv, also called 2437_02_G10) scFv: QVQLVESGGGLVKPGGSLRLSCAASGFTFSSYSMNWVRQAPGKGLEWVSVIYSGGSTHYADSVKGRFTISRHNSKNTLYLQMNSLRAEDTAVYYCARGAGTLNAFDIWGQGTTVTVSSGGGGSGGGGSGGGASQSGLTQPPSTSGSPGQSVTISCTGTSSDVGAYSYVSWYQQHPGKAPKLLIYAVTKRPSGVPDRFSGSKSGNTASLTVSGLQDEDEADYYCSSFAGGSTLVFGGGTKLTVL |  | 22100 |  |  | 4540 nM | 30900 |  | 77100 | 9590 | binds |
| scFv C07 (positive control), 5F9 scFv (scFv, also called 5F9 scFv-Fc) scFv: EIVMTQSPATLSVSPGERATLSCRASQSVSRNLAWYQQKPGQAPRLLIYGASTRATGIPARFSGSGSGTEFTLTIGSLQSEDFAVYYCQQYKTWPRTFGQGTNVEIKASGGGGSGGGGSGGGGSGGGGSELQVQLQQWGAGLLKPSETLSLTCAVFGGSFSGYYWSWIRQPPGKGLEWIGEINHRGNTNDNPSLKSRVTISVDTSKNQFALKLSSVTAADTAVYYCARERGYTYGNFDHWGQGTLVTVSS |  | 49200 |  |  | 15 nM | 83900 |  | 184000 | 133000 | binds |
| scFv B08 (scFv, also called 2436_02_F11) scFv: EVQLVQSGAEVKKPGSSVKVSCKASGGTFSSYAISWVRQAPGQGLEWMGGIIPIFGTANYAQKFQGRVTITADKSTSTAYMELSSLRSEDTAVYYCARGHYYYMDVWGQGTTVTVSSGGGGSGGGGSGGGASDIVMTQSPATLSVSPGEGATLSCRASQSVSSNLAWYQQKPGRAPRLLIYGASTRATGIPARFSGSGSGTEFTLTISSLQSEDFAVYYCQQYNNWPSFGGGTKLEIK | 153000 |  | 61100 | 23300 |  |  |  |  |  |  |
| scFv A08 (scFv, also called 2432_01_D05) scFv: EVQLLESGGGLVQPGGSLRLSCAASGFTFSSYWMSWVRQAPGKGLEWVANIKQDGSEKYYVDSVKGRFTISRDNAKNSLYLQMNSLRAEDTAVYYCAKAPWYSSSPTPYGMDVWGQGTLVTVSSGGGGSGGGGSGGGASDIQMTQSPSSLSASVGDRVTITCQASQDISNYLNWYQQKPGKAPRRLIYGASTLMSGVPSRFSGSGSGTDFTLTISSLQPEDFATYYCQQSYSTPLTFGGGTKVEIK | 54800 |  | 58100 | 8700 |  |  |  |  |  |  |
| scFv B01 (scFv, also called 2433_01_H07; H07) scFv: EVQLVQPGAEVKKPGSSVKVSCKASGGTLSSYAISWVRQAPGQGLEWMGRIIPILGITNYAQKFQGRVTITADKSTSTAYMELSSLRSEDTAVYFCARDQRPASMDVWGQGTLVTVSSGGGGSGGGGSGGGASQSGLTQPASVSGSPGQSITISCTGTSSDVGGYNYVSWYQQHPGKAPKLMIYEVSNRPSGVSNRFSGSKSGNTASLTISGLQAEDEADYYCSTVTSLSTYVFGTGTKLTVL |  | 4490 |  |  | 335 nM | 39400 |  | 133000 | 26200 | binds |
